According to patent publication US20140087995A1 (published 2014):
One block for each binder: values may come before it. Numbered stars: 1 amine (or outer) side, 2 acyl side, 3 side chain; on linkers, the order of the positions; unused ones are H or OH. Bridge positions count the residues as written; N and C are the ends. Side chains are listed from the residue outwards. Ends that are not written are not given here. * marks the point of attachment. C20 diacid = O=C(O)CCCCCCCCCCCCCCCCCCC(=O)*; γGlu = O=C(O)[C@H](CCC(=O)[*:2])N[*:1]; AEEA = NCCOCCOCC(=O)O

How the values were obtained:
rat calcitonin receptor [1] = molecular target: T1, rat calcitonin receptor (rat, UniProt P32214 25-516); test: ratio IC50 rat calcitonin receptor / IC50 rat amylin receptor (reference)
T1 construct: whole, on cells; Membranes of transiently transfected BHK tk'ts 13 cells (Assay VIII); also called rCTR
T1 sequence (looked up): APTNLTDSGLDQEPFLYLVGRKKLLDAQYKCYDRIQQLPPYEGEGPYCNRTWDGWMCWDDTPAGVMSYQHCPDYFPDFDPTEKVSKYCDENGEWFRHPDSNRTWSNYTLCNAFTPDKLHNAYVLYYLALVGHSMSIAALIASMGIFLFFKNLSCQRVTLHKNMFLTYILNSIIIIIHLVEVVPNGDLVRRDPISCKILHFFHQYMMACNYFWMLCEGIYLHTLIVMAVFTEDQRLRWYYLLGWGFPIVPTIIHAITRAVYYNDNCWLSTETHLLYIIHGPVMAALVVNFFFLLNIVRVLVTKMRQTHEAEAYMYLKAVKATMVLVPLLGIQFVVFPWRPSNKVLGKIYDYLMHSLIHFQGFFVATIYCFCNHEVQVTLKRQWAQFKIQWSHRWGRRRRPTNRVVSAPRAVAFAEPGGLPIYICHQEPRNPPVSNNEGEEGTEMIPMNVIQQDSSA

[2] = molecular target: T2, human calcitonin receptor (human, UniProt P30988 25-474); test: ratio IC50 human calcitonin receptor / IC50 human amylin receptor (reference)
T2 construct: whole, on cells; Membranes of a stably transfected BHK cell line (Assay VII); also called hCTR; hCT
T2 sequence (looked up): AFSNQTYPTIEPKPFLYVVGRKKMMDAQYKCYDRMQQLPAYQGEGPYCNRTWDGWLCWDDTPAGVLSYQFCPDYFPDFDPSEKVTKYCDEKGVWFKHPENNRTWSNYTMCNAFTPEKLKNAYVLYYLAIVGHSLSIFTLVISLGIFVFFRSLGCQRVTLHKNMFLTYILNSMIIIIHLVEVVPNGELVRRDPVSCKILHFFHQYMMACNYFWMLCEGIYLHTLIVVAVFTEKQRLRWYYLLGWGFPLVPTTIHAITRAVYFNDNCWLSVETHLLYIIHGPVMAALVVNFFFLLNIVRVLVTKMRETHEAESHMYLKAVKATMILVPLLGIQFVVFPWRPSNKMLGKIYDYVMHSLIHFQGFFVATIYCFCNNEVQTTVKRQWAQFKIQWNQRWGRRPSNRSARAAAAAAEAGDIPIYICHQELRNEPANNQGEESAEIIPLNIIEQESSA
Description: The resulting pellet was resuspended, homogenized and centrifuged (20.000 rpm, 15 min) in a buffer containing 20 mM Na-HEPES and 0.1 mM EDTA (pH 7.4, buffer 2). The resulting pellet was resuspended in buffer 2 and protein concentration was measured (BCA protein Assay, Pierce). The homogenate was kept cold during the whole procedure. The membranes were kept at −80° C. until use. The assay was performed in a 384 well Optiplate (PerkinElmer) in a total volume of 40 ul. Membranes were mixed with SPA beads. Final concentration of membranes 35 ng/μL final and SPA beads was 0.05 mg/well. Test-compounds were dissolved in DMSO and further diluted in assay buffer (50 mM Hepes, pH 7.4, 1 mM CaCl2, 5 mM MgCl₂, 0.1% OA and 0.02% Tween20). […] The final mixture was incubated with shaking at 400 rpm for 120 min at 25° C. prior to centrifugation (1500 rpm, 10 min). Samples were analyzed on TopCounter™ (Packard). The IC₅₀ was calculated using (one site binding competition analysis) GraphPad Prism5 as a measure of receptor affinity.
Membranes were prepared in the following way; the cells were rinsed with PBS and incubated with Versene for approximately 5 min before harvesting. The cells were flushed with PBS and the cell-suspension was centrifuged for 5 min at 1000 rpm. Cells were homogenized (Ultrathurrax) in a buffer containing 20 mM Na-HEPES and 10 mM EDTA (pH 7.4) and centrifuged at 20.000 rpm for 15 min. The resulting pellet was resuspended, homogenized and centrifuged (20.000 rpm, 15 min) in a buffer containing 20 mM Na-HEPES and 0.1 mM EDTA (pH 7.4, buffer 2). The resulting pellet was resuspended in buffer 2 and protein concentration was measured (BCA protein Assay, Pierce). The homogenate was kept cold during the whole procedure. The membranes were kept at −80° C. until use. Assay was performed in a 384 well Optiplate (PerkinElmer) in a total volume of 40 ul. Membranes were mixed with SPA beads.

rat calcitonin receptor [3] = molecular target: T1, rat calcitonin receptor; test: SPA competition with 125I-calcitonin, membranes of BHK cells with rat calcitonin receptor (Assay VIII)
[4] = molecular target: T3, rat amylin receptor (rat calcitonin receptor + rat RAMP 3) (rat, UniProt P32214 25-516; Q9JJ73 23-147); test: SPA competition with 125I-rat amylin, membranes of BHK cells with rat calcitonin receptor + rat RAMP3 (Assay VI)
T3 construct: whole, on cells; Membranes of transiently transfected BHK tk'ts 13 cells (Assay VI); also called rAmylin-R; rat amylin 3(a) receptor
T3 sequence (looked up) 1: T1 sequence (looked up)
T3 sequence (looked up) 2: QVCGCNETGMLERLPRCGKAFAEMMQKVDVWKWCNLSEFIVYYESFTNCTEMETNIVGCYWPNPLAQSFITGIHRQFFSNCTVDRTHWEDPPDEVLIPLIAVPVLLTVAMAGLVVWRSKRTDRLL

- Ratio rCT/rAmylin binding (rat calcitonin receptor [1]): 118
- Ratio hCT/hAmylin binding [2]: 79.6
- IC50 (rat calcitonin receptor [3]): 62.2 nM
- IC50 [4]: 0.529 nM
B1: N^ε1-[2-[2-[2-[[2-[2-[2-[[(4S)-4-carboxy-4-(19-carboxynonadecanoylamino)butanoyl]amino]ethoxy]ethoxy]acetyl]amino]ethoxy]ethoxy]acetyl]-[Arg17,Pro21,Pro27,Pro31 … (peptide)
peptide: K([AEEA-AEEA-γGlu-C20 diacid])CNTATCATQRLANFLRHSSPNFGAIPSSTPVGSNTY-NH2
modifications: disulfide 2-7; N-terminus assumed
SMILES: CC[C@H](C)[C@H](NC(=O)[C@H](C)NC(=O)CNC(=O)[C@H](Cc1ccccc1)NC(=O)[C@H](CC(N)=O)NC(=O)[C@@H]1CCCN1C(=O)[C@H](CO)NC(=O)[C@H](CO)NC(=O)[C@H](Cc1c[nH]cn1)NC(=O)[C@H](CCCNC(=N)N)NC(=O)[C@H](CC(C)C)NC(=O)[C@H](Cc1ccccc1)NC(=O)[C@H](CC(N)=O)NC(=O)[C@H](C)NC(=O)[C@H](CC(C)C)NC(=O)[C@H](CCCNC(=N)N)NC(=O)[C@H](CCC(N)=O)NC(=O)[C@@H](NC(=O)[C@H](C)NC(=O)[C@@H]1CSSC[C@H](NC(=O)[C@@H](N)CCCCNC(=O)COCCOCCNC(=O)COCCOCCNC(=O)CC[C@H](NC(=O)CCCCCCCCCCCCCCCCCCC(=O)O)C(=O)O)C(=O)N[C@@H](CC(N)=O)C(=O)N[C@@H]([C@@H](C)O)C(=O)N[C@@H](C)C(=O)N[C@@H]([C@@H](C)O)C(=O)N1)[C@@H](C)O)C(=O)N1CCC[C@H]1C(=O)N[C@@H](CO)C(=O)N[C@@H](CO)C(=O)N[C@H](C(=O)N1CCC[C@H]1C(=O)N[C@H](C(=O)NCC(=O)N[C@@H](CO)C(=O)N[C@@H](CC(N)=O)C(=O)N[C@H](C(=O)N[C@@H](Cc1ccc(O)cc1)C(N)=O)[C@@H](C)O)C(C)C)[C@@H](C)O
notes: also called compound 96

- Ratio rCT/rAmylin binding (rat calcitonin receptor [1]): 176
- Ratio hCT/hAmylin binding [2]: 74.1
- IC50 (rat calcitonin receptor [3]): 24.1 nM
- IC50 [4]: 0.137 nM
B2: N^ε1-[2-[2-[2-[[2-[2-[2-[[(4S)-4-carboxy-4-(19-carboxynonadecanoylamino)butanoyl]amino]ethoxy]ethoxy]acetyl]amino]ethoxy]ethoxy]acetyl]-[Arg17,Pro21,Pro27,Pro34 … (peptide)
peptide: K([AEEA-AEEA-γGlu-C20 diacid])CNTATCATQRLANFLRHSSPNFGAIPSSTNVGPNTY-NH2
modifications: disulfide 2-7; N-terminus assumed
SMILES: CC[C@H](C)[C@H](NC(=O)[C@H](C)NC(=O)CNC(=O)[C@H](Cc1ccccc1)NC(=O)[C@H](CC(N)=O)NC(=O)[C@@H]1CCCN1C(=O)[C@H](CO)NC(=O)[C@H](CO)NC(=O)[C@H](Cc1c[nH]cn1)NC(=O)[C@H](CCCNC(=N)N)NC(=O)[C@H](CC(C)C)NC(=O)[C@H](Cc1ccccc1)NC(=O)[C@H](CC(N)=O)NC(=O)[C@H](C)NC(=O)[C@H](CC(C)C)NC(=O)[C@H](CCCNC(=N)N)NC(=O)[C@H](CCC(N)=O)NC(=O)[C@@H](NC(=O)[C@H](C)NC(=O)[C@@H]1CSSC[C@H](NC(=O)[C@@H](N)CCCCNC(=O)COCCOCCNC(=O)COCCOCCNC(=O)CC[C@H](NC(=O)CCCCCCCCCCCCCCCCCCC(=O)O)C(=O)O)C(=O)N[C@@H](CC(N)=O)C(=O)N[C@@H]([C@@H](C)O)C(=O)N[C@@H](C)C(=O)N[C@@H]([C@@H](C)O)C(=O)N1)[C@@H](C)O)C(=O)N1CCC[C@H]1C(=O)N[C@@H](CO)C(=O)N[C@@H](CO)C(=O)N[C@H](C(=O)N[C@@H](CC(N)=O)C(=O)N[C@H](C(=O)NCC(=O)N1CCC[C@H]1C(=O)N[C@@H](CC(N)=O)C(=O)N[C@H](C(=O)N[C@@H](Cc1ccc(O)cc1)C(N)=O)[C@@H](C)O)C(C)C)[C@@H](C)O
notes: also called compound 98
